Consider seven molecules from paper PMC6739345, “CAND1 regulates lunapark for the proper tubular network of the endoplasmic reticulum” (Scientific Reports, 2019).

To fix the notation:
T1: MBP-fused CAND1 (human, UniProt Q86VP6 1-1230)
T1 construct: Cullin-associated and neddylation-dissociated 1 (CAND1), human; cDNA bought from the Kazusa DNA Research Institute, in pMAL-C2; also called MBP-CAND1; source: E. coli Rosetta-Gami, purified (amylose resin, eluted with maltose)
T1 sequence (looked up): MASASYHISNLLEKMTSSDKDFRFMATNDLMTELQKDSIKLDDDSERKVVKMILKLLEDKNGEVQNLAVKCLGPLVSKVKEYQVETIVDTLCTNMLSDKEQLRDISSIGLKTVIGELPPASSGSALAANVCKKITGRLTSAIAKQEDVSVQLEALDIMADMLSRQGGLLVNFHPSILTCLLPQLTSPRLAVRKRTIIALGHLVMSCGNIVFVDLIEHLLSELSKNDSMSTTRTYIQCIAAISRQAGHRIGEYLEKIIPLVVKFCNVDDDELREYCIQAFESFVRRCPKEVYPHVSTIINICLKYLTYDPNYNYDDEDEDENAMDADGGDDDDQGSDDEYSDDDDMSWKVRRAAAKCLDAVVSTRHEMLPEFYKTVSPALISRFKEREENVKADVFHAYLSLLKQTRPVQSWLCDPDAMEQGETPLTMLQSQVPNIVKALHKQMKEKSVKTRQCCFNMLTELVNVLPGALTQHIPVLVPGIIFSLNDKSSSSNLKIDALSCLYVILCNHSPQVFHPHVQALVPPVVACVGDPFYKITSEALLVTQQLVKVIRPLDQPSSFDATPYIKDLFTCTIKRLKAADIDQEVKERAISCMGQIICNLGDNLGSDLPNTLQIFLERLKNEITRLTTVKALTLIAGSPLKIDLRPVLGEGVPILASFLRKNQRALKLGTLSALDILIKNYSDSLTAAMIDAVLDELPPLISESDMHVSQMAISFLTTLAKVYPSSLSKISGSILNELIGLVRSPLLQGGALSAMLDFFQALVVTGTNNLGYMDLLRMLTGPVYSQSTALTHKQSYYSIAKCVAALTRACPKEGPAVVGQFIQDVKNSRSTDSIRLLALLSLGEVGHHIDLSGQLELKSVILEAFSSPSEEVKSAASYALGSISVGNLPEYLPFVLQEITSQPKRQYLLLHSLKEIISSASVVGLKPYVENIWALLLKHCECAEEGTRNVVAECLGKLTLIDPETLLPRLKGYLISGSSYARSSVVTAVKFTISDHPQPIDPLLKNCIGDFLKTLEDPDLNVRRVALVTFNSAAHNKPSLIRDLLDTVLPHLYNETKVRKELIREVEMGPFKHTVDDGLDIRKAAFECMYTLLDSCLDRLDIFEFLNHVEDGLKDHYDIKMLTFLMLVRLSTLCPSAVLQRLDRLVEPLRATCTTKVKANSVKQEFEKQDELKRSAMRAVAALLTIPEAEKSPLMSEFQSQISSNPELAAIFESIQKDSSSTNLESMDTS

B1: hexa histidine-tagged Lnp, wild type (natural protein, human, UniProt Q9C0E8 1-428, looked up)
chain: MGGLFSRWRTKPSTVEVLESIDKEIQALEEFREKNQRLQKLWVGRLILYSSVLYLFTCLIVYLWYLPDEFTARLAMTLPFFAFPLIIWSIRTVIIFFFSKRTERNNEALDDLKSQRKKILEEVMEKETYKTAKLILERFDPDSKKAKECEPPSAGAAVTARPGQEIRQRTAAQRNLSPTPASPNQGPPPQVPVSPGPPKDSSAPGGPPERTVTPALSSNVLPRHLGSPATSVPGMGLHPPGPPLARPILPRERGALDRIVEYLVGDGPQNRYALICQQCFSHNGMALKEEFEYIAFRCAYCFFLNPARKTRPQAPRLPEFSFEKRQVVEGSSSVGPLPSGSVLSSDNQFNEESLEHDVLDDNTEQTDDKIPATEQTNQVIEKASDSEEPEEKQETENEEASVIETNSTVPGADSIPDPELSGESLTAE
notes: lunapark (Lnp), human; cDNA amplified from a human cDNA library, in pET28a(+); also called His-Lnp; His-Lnp WT; source: E. coli BL21 (DE3), purified (Ni-agarose)
B2: GST-fused Lnp (lunapark) (natural protein, human, UniProt Q9C0E8 1-428, looked up)
chain: B1 chain
notes: lunapark (Lnp), human; cDNA amplified from a human cDNA library, in pGEX-6P-1; the same cDNA was subcloned into all vectors; also called GST-Lnp; GST-Lnp WT; source: E. coli BL21 (DE3), purified (glutathione Sepharose)
B3: His-Lnp ΔZn + LNPARK (Lnp lacking the zinc finger motif and the following LNPARK amino acids) (natural protein, human, UniProt Q9C0E8 1-428, looked up)
chain: MGGLFSRWRTKPSTVEVLESIDKEIQALEEFREKNQRLQKLWVGRLILYSSVLYLFTCLIVYLWYLPDEFTARLAMTLPFFAFPLIIWSIRTVIIFFFSKRTERNNEALDDLKSQRKKILEEVMEKETYKTAKLILERFDPDSKKAKECEPPSAGAAVTARPGQEIRQRTAAQRNLSPTPASPNQGPPPQVPVSPGPPKDSSAPGGPPERTVTPALSSNVLPRHLGSPATSVPGMGLHPPGPPLARPILPRERGALDRIVEYLVGDGPQNRYALTRPQAPRLPEFSFEKRQVVEGSSSVGPLPSGSVLSSDNQFNEESLEHDVLDDNTEQTDDKIPATEQTNQVIEKASDSEEPEEKQETENEEASVIETNSTVPGADSIPDPELSGESLTAE
notes: lunapark (Lnp), human, lacking the zinc finger motif and the following LNPARK amino acids (275–309 aa), in pET28a(+); source: E. coli BL21 (DE3), purified (Ni-agarose)
B4: His-Lnp ΔCC (Lnp lacking the coiled-coil domain) (natural protein, human, UniProt Q9C0E8 1-428, looked up)
chain: MGGLFSRWRTKPSTVEVLESIDKEIQALEEFREKNQRLQKLWVGRLILYSSVLYLFTCLIVYLWYLPDEFTARLAMTLPFFAFPLIIWSIRTVIIFFFSKKAKECEPPSAGAAVTARPGQEIRQRTAAQRNLSPTPASPNQGPPPQVPVSPGPPKDSSAPGGPPERTVTPALSSNVLPRHLGSPATSVPGMGLHPPGPPLARPILPRERGALDRIVEYLVGDGPQNRYALICQQCFSHNGMALKEEFEYIAFRCAYCFFLNPARKTRPQAPRLPEFSFEKRQVVEGSSSVGPLPSGSVLSSDNQFNEESLEHDVLDDNTEQTDDKIPATEQTNQVIEKASDSEEPEEKQETENEEASVIETNSTVPGADSIPDPELSGESLTAE
notes: lunapark (Lnp), human, lacking the coiled-coil domain (100–143 aa), in pET28a(+); source: E. coli BL21 (DE3), purified (Ni-agarose)
B5: GST-Lnp Ub (N-terminal ubiquitin ligase domain of Lnp) (domain or fragment, human, UniProt Q9C0E8 1-45, looked up)
chain: {GST}-MGGLFSRWRTKPSTVEVLESIDKEIQALEEFREKNQRLQKLWVGR
notes: lunapark (Lnp), human, N-terminal cytoplasmic domain (1–45 aa, Ub), in pGEX-6P-1; source: E. coli BL21 (DE3), purified (glutathione Sepharose, eluted with glutathione)
B6: His-Lnp ΔUb (Lnp lacking the N-terminal ubiquitin ligase domain) (domain or fragment, human, UniProt Q9C0E8 46-428, looked up)
chain: LILYSSVLYLFTCLIVYLWYLPDEFTARLAMTLPFFAFPLIIWSIRTVIIFFFSKRTERNNEALDDLKSQRKKILEEVMEKETYKTAKLILERFDPDSKKAKECEPPSAGAAVTARPGQEIRQRTAAQRNLSPTPASPNQGPPPQVPVSPGPPKDSSAPGGPPERTVTPALSSNVLPRHLGSPATSVPGMGLHPPGPPLARPILPRERGALDRIVEYLVGDGPQNRYALICQQCFSHNGMALKEEFEYIAFRCAYCFFLNPARKTRPQAPRLPEFSFEKRQVVEGSSSVGPLPSGSVLSSDNQFNEESLEHDVLDDNTEQTDDKIPATEQTNQVIEKASDSEEPEEKQETENEEASVIETNSTVPGADSIPDPELSGESLTAE
notes: lunapark (Lnp), human, lacking Lnp Ub (the N-terminal cytoplasmic domain, 1–45 aa), in pET28a(+); The start 46 follows from the printed limits of Lnp Ub (1–45 aa); source: E. coli BL21 (DE3), purified (Ni-agarose)
B7: His-Lnp ΔTM (transmembrane domains replaced by a (GGS)3 linker) (natural protein, human)
chain: MGGLFSRWRTKPSTVEVLESIDKEIQALEEFREKNQRLQKLWVGGGSGGSGGSRTERNNEALDDLKSQRKKILEEVMEKETYKTAKLILERFDPDSKKAKECEPPSAGAAVTARPGQEIRQRTAAQRNLSPTPASPNQGPPPQVPVSPGPPKDSSAPGGPPERTVTPALSSNVLPRHLGSPATSVPGMGLHPPGPPLARPILPRERGALDRIVEYLVGDGPQNRYALICQQCFSHNGMALKEEFEYIAFRCAYCFFLNPARKTRPQAPRLPEFSFEKRQVVEGSSSVGPLPSGSVLSSDNQFNEESLEHDVLDDNTEQTDDKIPATEQTNQVIEKASDSEEPEEKQETENEEASVIETNSTVPGADSIPDPELSGESLTAE
notes: lunapark (Lnp), human, the stretch before the transmembrane domains (45–100 aa); polypeptide linker (GGS)3 in place of residues 45–100; lunapark (Lnp), human, the stretch after the transmembrane domains (45–100 aa); source: E. coli BL21 (DE3), purified (Ni-agarose)

Ends that are not written are not given here.

Series [1] concerns the target T1, MBP-fused CAND1. The series is described as follows: sucrose density gradient ultracentrifugation; His-Lnp (0.6 nmol) alone or incubated with MBP-CAND1 (2 nmol) in buffer H (20 mM Tris-HCl pH 7.5, 150 mM NaCl, 1% Triton X-100), 10–40% (w/v) sucrose gradient, 200,000 x g, 4 °C, 20 h; 17 fractions, CBB staining. The conditions noted are these: both partners purified.

Series [2] deals with the molecule itself. The description is as above.
For series [3], the target named is T1, MBP-fused CAND1. The series is described as follows: pull-down; GST-Lnp or GST-Lnp Ub (0.6 nmol) immobilised on glutathione Sepharose, incubated with MBP-CAND1 (6 nmol) in buffer A with 1% Triton X-100, 4 °C 2 h; CBB staining. To be noted: both partners purified.
Series [4] has as its target T1, MBP-fused CAND1. The series is described as follows: pull-down; His-Lnp WT or deletion mutants (0.5 nmol) immobilised on Ni-agarose, incubated with MBP-CAND1 or MBP alone (3 nmol) in buffer G with 10 mM imidazole, 4 °C 2 h; CBB staining. The conditions noted are these: both partners purified.
Series [5] has as its target B6. The series is described as follows: pull-down; His-Lnp ΔUb (0.6 nmol) immobilised on Ni-agarose, incubated with GST-Lnp Ub (3 nmol) or GST alone, or with GST-Lnp Ub (1.2 nmol) and MBP-CAND1 or MBP alone (6 nmol), in buffer G with 20 mM imidazole and 1 mM DTT, 4 °C 2 h; CBB staining. The conditions noted are these: both partners purified.

Regarding B1, the binding result in series [1] and in series [2] was “binds” throughout.
Regarding B2, the binding result in series [3] is reported as “binds”.
As to B3, in series [4], the binding result was “binds”.
Same read-out and setting: next, B4: “binds”.
On to B5, for which, in series [5], the binding result was “binds”.
For B6, in series [4], the binding result is on record as “binds”.
Still for that read-out and setting: then B7, with “binds”.
